Test system: control human primary myoblasts
Experiment: Expression microarray of primary myoblasts transduced with lentivirus carrying DUX4-fl, DUX4-s or GFP
Protocol: Primary human myoblasts were collected and cultured as previously described (Snider et al., 2010). Primary myoblasts were maintained at or below 70% confluency for proliferation. For differentiation, cells were allowed to reach 95-100% confluency in growth medium. Once confluency was reached, the cells were changed to differentiation medium (F10 media supplemented with 1% horse serum, 10 μg/mL insulin, and 10 μg/mL transferrin, penicillin/streptomycin) and maintained for 4 days. Human RD cells were grown in DMEM in 10% bovine calf serum (Hyclone) and penicillin/streptomycin. The primary myoblasts were transduced with lentivirus carrying DUX-fl, DUX4- or GFP (MOI=15).
Expression microarrays were performed on the transduced cells at 24 hours after transduction as follows. […] Samples were analyzed by Illumina Human Whole Genome microarrays. Probe intensities were corrected, normalized, and summarized by the Lumi package of Bioconductor (Du et al., 2008). Differentially expressed genes were identified by the LIMMA package of Bioconductor (Wettenhall and Smyth, 2004). Gene set enrichment analysis (GSEA) was performed using the Bioconductor GOstats package (Falcon and Gentleman, 2007).

B1: DUX4-s: short splice form of DUX4 (SEQ ID NO:112), keeps the double-homeobox domains, lacks the C-terminal activation domain (protein, listed as Homo sapiens)
chain: MALPTPSDSTLPAEARGRGRRRRLVWTPSQSEALRACFERNPYPGIATRERLAQAIGIPEPRVQIWFQNERSRQLRQHRRESRPWPGRRGPPEGRRKRTAVTGSQTALLLRAFEKDRFPGIAAREELARETGLPESRIQIWFQNRRARHPGQGGRAPAQV
MYBPHL expression fc (cultured human skeletal muscle): −0.5205
MYF5 expression fc (cultured human skeletal muscle): 0.291
MYH13 expression fc (cultured human skeletal muscle): −1.541
NACC2 expression fc (cultured human skeletal muscle): 0.9823
NFIL3 expression fc (cultured human skeletal muscle): 0.3195
NFKB1 expression fc (cultured human skeletal muscle): 0.05546
NFKBIZ expression fc (cultured human skeletal muscle): −0.2644
NINJ1 expression fc (cultured human skeletal muscle): 0.2107
NPTX2 expression fc (cultured human skeletal muscle): 0.122
NRXN2 expression fc (cultured human skeletal muscle): −0.2444
NT5E expression fc (cultured human skeletal muscle): 0.489
OCEL1 expression fc (cultured human skeletal muscle): −0.0991
P2RX6 expression fc (cultured human skeletal muscle): −0.7432
PARP3 expression fc (cultured human skeletal muscle): 0.1606
PCK2 expression fc (cultured human skeletal muscle): 0.4194
PCTK3 expression fc (cultured human skeletal muscle): 0.5932
PDK4 expression fc (cultured human skeletal muscle): 0.02699
PDPN expression fc (cultured human skeletal muscle): −0.2902
PFKFB4 expression fc (cultured human skeletal muscle): 0.4582
PHF15 expression fc (cultured human skeletal muscle): 0.2557
PHLDA3 expression fc (cultured human skeletal muscle): 0.1958
PLA2G4C expression fc (cultured human skeletal muscle): 0.07403
PLEKHA4 expression fc (cultured human skeletal muscle): 1.33
PLIN2 expression fc (cultured human skeletal muscle): 0.6107
PLXNB1 expression fc (cultured human skeletal muscle): −0.09843
PLXNB2 expression fc (cultured human skeletal muscle): 0.2031
PPAP2B expression fc (cultured human skeletal muscle): 0.05885
PPP3CC expression fc (cultured human skeletal muscle): 0.2562
PRDM1 expression fc (cultured human skeletal muscle): −0.09376
PRKCD expression fc (cultured human skeletal muscle): 0.349
PSMB10 expression fc (cultured human skeletal muscle): 0.7464
PSME2 expression fc (cultured human skeletal muscle): 0.4304
PTGES expression fc (cultured human skeletal muscle): 0.3116
PTPRU expression fc (cultured human skeletal muscle): 0.2612
RALGDS expression fc (cultured human skeletal muscle): 0.0686
RBCK1 expression fc (cultured human skeletal muscle): 0.326
RBM43 expression fc (cultured human skeletal muscle): 0.3215
RCAN1 expression fc (cultured human skeletal muscle): 0.9917
RELB expression fc (cultured human skeletal muscle): 0.2914
RGS20 expression fc (cultured human skeletal muscle): 0.08652
RHBDF2 expression fc (cultured human skeletal muscle): 0.3815
RRAS expression fc (cultured human skeletal muscle): −0.1908
RRBP1 expression fc (cultured human skeletal muscle): 0.09904
RTKN expression fc (cultured human skeletal muscle): −0.2678
RTTN expression fc (cultured human skeletal muscle): 0.009387
RUSC1 expression fc (cultured human skeletal muscle): 0.03464
SERPING1 expression fc (cultured human skeletal muscle): 1.214
SESN1 expression fc (cultured human skeletal muscle): −0.1133
SHISA5 expression fc (cultured human skeletal muscle): −0.2735
SIX5 expression fc (cultured human skeletal muscle): −0.3614
SLC16A3 expression fc (cultured human skeletal muscle): 0.4873
SLC22A18 expression fc (cultured human skeletal muscle): −0.05235
SLC25A28 expression fc (cultured human skeletal muscle): 0.7251
SLC39A14 expression fc (cultured human skeletal muscle): 0.4801
SPTLC3 expression fc (cultured human skeletal muscle): 0.2428
SQSTM1 expression fc (cultured human skeletal muscle): 0.1771
SRGN expression fc (cultured human skeletal muscle): 0.2031
STC1 expression fc (cultured human skeletal muscle): 0.8132
STEAP3 expression fc (cultured human skeletal muscle): −0.291
SUSD2 expression fc (cultured human skeletal muscle): −2.022
TAPBP expression fc (cultured human skeletal muscle): 0.474
TCEA3 expression fc (cultured human skeletal muscle): −0.1206
TCP11L1 expression fc (cultured human skeletal muscle): 0.7816
TMEM45A expression fc (cultured human skeletal muscle): 0.4128
TMEM173 expression fc (cultured human skeletal muscle): 0.3673
TNFAIP2 expression fc (cultured human skeletal muscle): 0.05713
TNFRSF1A expression fc (cultured human skeletal muscle): 0.2727
TNFRSF6B expression fc (cultured human skeletal muscle): 0.00925
TNFSF13B expression fc (cultured human skeletal muscle): 2.19
TNS3 expression fc (cultured human skeletal muscle): −0.1648
TRAF3IP2 expression fc (cultured human skeletal muscle): 0.7299
TRIP6 expression fc (cultured human skeletal muscle): 0.003438
TRNP1 expression fc (cultured human skeletal muscle): 0.007844
TSC22D3 expression fc (cultured human skeletal muscle): 0.2002
VASN expression fc (cultured human skeletal muscle): 0.2877
VEZF1 expression fc (cultured human skeletal muscle): −0.6876
XBP1 expression fc (cultured human skeletal muscle): 0.3357
ZBTB4 expression fc (cultured human skeletal muscle): 0.002479
ZC3H12A expression fc (cultured human skeletal muscle): 0.5426
ZFHX3 expression fc (cultured human skeletal muscle): 0.5029
ZFP36L2 expression fc (cultured human skeletal muscle): 0.7338
ZFP90 expression fc (cultured human skeletal muscle): −0.1973
ZNF337 expression fc (cultured human skeletal muscle): −0.04356
ZNF395 expression fc (cultured human skeletal muscle): 0.2584
Log2 Fc AMACR (vs lenti-GFP, 24 h): 0.1 log2
Log2 Fc ARIH1 (vs lenti-GFP, 24 h): 0.8 log2
Log2 Fc ARS2 (vs lenti-GFP, 24 h): −0.2 log2
Log2 Fc CBARA1 (vs lenti-GFP, 24 h): −0.2 log2
Log2 Fc CD24 (vs lenti-GFP, 24 h): −0.4 log2
Log2 Fc CSAG3 (vs lenti-GFP, 24 h): 0.1 log2
Log2 Fc CSE1L (vs lenti-GFP, 24 h): 0.1 log2
Log2 Fc CWC15 (vs lenti-GFP, 24 h): 0.1 log2
Log2 Fc CXADR (vs lenti-GFP, 24 h): −0.1 log2
Log2 Fc CXCR4 (vs lenti-GFP, 24 h): −0.1 log2
Log2 Fc DBR1 (vs lenti-GFP, 24 h): 0.2 log2
Log2 Fc DEFB103B (vs lenti-GFP, 24 h): 0.1 log2
Log2 Fc FBXO33 (vs lenti-GFP, 24 h): 0.2 log2
Log2 Fc FGFR3 (vs lenti-GFP, 24 h): 0.0 log2
Log2 Fc FLJ45337 (vs lenti-GFP, 24 h): −0.2 log2
Log2 Fc GTF2F1 (vs lenti-GFP, 24 h): 0.3 log2
Log2 Fc HNRNPCL1 (vs lenti-GFP, 24 h): −0.1 log2
Log2 Fc HOXB2 (vs lenti-GFP, 24 h): 0.0 log2
Log2 Fc HSPA2 (vs lenti-GFP, 24 h): −0.3 log2
Log2 Fc ID2 (vs lenti-GFP, 24 h): 0.3 log2
Log2 Fc IFRD1 (vs lenti-GFP, 24 h): −0.2 log2
Log2 Fc JUP (vs lenti-GFP, 24 h): −0.1 log2
Log2 Fc KHDC1L (vs lenti-GFP, 24 h): −0.1 log2
Log2 Fc MBD3L2 (vs lenti-GFP, 24 h): 0.0 log2
Log2 Fc MED26 (vs lenti-GFP, 24 h): 0.1 log2
Log2 Fc MGC10997 (vs lenti-GFP, 24 h): −0.3 log2
Log2 Fc PABPN1 (vs lenti-GFP, 24 h): −0.3 log2
Log2 Fc PELI1 (vs lenti-GFP, 24 h): 0.1 log2
Log2 Fc PNMA6B (vs lenti-GFP, 24 h): −0.2 log2
Log2 Fc PRAMEF1 (vs lenti-GFP, 24 h): 0.1 log2
Log2 Fc PVRL3 (vs lenti-GFP, 24 h): 0.4 log2
Log2 Fc RMRP (vs lenti-GFP, 24 h): 0.1 log2
Log2 Fc RNGTT (vs lenti-GFP, 24 h): −0.6 log2
Log2 Fc RPPH1 (vs lenti-GFP, 24 h): 0.2 log2
Log2 Fc RRN3 (vs lenti-GFP, 24 h): 0.1 log2
Log2 Fc SFRS2B (vs lenti-GFP, 24 h): −0.3 log2
Log2 Fc SFRS17A (vs lenti-GFP, 24 h): 0.2 log2
Log2 Fc SIAH1 (vs lenti-GFP, 24 h): −0.1 log2
Log2 Fc SLC2A14 (vs lenti-GFP, 24 h): 0.2 log2
Log2 Fc SLC34A2 (vs lenti-GFP, 24 h): 0.0 log2
Log2 Fc SNIP1 (vs lenti-GFP, 24 h): −0.2 log2
Log2 Fc SON (vs lenti-GFP, 24 h): −0.3 log2
Log2 Fc SPRYD5 (vs lenti-GFP, 24 h): −0.1 log2
Log2 Fc SPTY2D1 (vs lenti-GFP, 24 h): −0.3 log2
Log2 Fc TFIP11 (vs lenti-GFP, 24 h): 0.1 log2
Log2 Fc THOC4 (vs lenti-GFP, 24 h): −0.2 log2
Log2 Fc TPRX1 (vs lenti-GFP, 24 h): −0.1 log2
Log2 Fc TRIM23 (vs lenti-GFP, 24 h): 0.6 log2
Log2 Fc TRIM43 (vs lenti-GFP, 24 h): 0.0 log2
Log2 Fc USP29 (vs lenti-GFP, 24 h): −0.1 log2
Log2 Fc ZNF217 (vs lenti-GFP, 24 h): −0.3 log2
Log2 Fc ZNF705A (vs lenti-GFP, 24 h): −0.1 log2
Log2 Fc ZNHIT6 (vs lenti-GFP, 24 h): 0.3 log2
Log2 Fc ZSCAN2 (vs lenti-GFP, 24 h): −0.2 log2
Log2 Fc ZSCAN4 (vs lenti-GFP, 24 h): 0.0 log2
